The record followed here is patent publication US20090081207A1 (published 2009).

Several values for one entry are separate records, joined by “and”; a condition that tells them apart may be missing. Identical values can stand only once.

For assay [1], the target named is human α5β1 integrin (human, UniProt P08648 42-1049; P05556 21-798). Description: cell-based or functional assay.
In assay [2] the target is T1, β1-integrin chain on HT29 wt cells (α5-chain negative) (human, UniProt P05556 21-798).
T1 construct: whole, on cells; Negative cell control: β1 present at high density, α5 absent
T1 sequence (P05556 21-798): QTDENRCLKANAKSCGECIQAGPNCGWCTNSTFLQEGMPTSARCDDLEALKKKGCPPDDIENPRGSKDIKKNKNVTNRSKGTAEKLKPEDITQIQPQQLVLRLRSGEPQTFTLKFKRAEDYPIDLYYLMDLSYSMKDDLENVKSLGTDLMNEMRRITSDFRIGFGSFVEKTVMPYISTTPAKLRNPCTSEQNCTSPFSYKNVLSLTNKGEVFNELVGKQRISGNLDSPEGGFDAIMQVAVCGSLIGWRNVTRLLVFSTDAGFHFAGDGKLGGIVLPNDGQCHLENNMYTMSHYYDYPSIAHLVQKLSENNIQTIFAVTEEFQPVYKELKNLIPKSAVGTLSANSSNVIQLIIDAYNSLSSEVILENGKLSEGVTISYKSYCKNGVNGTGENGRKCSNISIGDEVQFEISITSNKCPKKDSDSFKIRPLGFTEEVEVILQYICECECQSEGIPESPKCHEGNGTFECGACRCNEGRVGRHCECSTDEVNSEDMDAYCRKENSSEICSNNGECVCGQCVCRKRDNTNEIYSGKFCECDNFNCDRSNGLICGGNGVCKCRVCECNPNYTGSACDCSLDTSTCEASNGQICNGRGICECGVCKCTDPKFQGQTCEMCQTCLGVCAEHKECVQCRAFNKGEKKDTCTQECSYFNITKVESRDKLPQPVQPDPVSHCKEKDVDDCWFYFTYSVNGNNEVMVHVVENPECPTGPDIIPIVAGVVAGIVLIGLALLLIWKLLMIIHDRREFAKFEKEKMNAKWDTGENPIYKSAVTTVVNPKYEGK
Description: FACS on HT29 wt cells, labelled secondary antibody. How it is done: Affinity matured IgG antibodies were incubated at 10 μg/mL with 5×10⁵ HT29 wt and HT29α5 cells. Specifically bound antibodies were detected with a Cy3-labelled secondary antibody. Upper panel: IIA1 incubated with HT29 wt (left) or HT29α5-cells (right), lower panel: IgG1 MOR04974. The fluorescence shift indicates specific binding to α5 integrin and was found for MOR04975, MOR04977, MOR04985 and MOR04624 (grey area). Antibody isotype controls are negative (black lines (b)). Our anti-integrin antibodies bind to α5-chain transfected cells with the same specificity as the reference antibody IIA1.
Affinity matured antibodies of the IgG-format were tested for their binding specificity by FACS analysis on HT29 wt vs. HT29α5 cells. HT29 wt cells are α5-negative but do contain the β1-integrin chain. HT29α5 but not the HT29 wt cells are specifically recognized by the IgG1-anti-integrin antibodies and the reference antibody IIA1 as indicated by the fluorescence shift. (FIG. 12).

Sequence of human α5β1 integrin (P08648 42-1049, chain 1 of 2): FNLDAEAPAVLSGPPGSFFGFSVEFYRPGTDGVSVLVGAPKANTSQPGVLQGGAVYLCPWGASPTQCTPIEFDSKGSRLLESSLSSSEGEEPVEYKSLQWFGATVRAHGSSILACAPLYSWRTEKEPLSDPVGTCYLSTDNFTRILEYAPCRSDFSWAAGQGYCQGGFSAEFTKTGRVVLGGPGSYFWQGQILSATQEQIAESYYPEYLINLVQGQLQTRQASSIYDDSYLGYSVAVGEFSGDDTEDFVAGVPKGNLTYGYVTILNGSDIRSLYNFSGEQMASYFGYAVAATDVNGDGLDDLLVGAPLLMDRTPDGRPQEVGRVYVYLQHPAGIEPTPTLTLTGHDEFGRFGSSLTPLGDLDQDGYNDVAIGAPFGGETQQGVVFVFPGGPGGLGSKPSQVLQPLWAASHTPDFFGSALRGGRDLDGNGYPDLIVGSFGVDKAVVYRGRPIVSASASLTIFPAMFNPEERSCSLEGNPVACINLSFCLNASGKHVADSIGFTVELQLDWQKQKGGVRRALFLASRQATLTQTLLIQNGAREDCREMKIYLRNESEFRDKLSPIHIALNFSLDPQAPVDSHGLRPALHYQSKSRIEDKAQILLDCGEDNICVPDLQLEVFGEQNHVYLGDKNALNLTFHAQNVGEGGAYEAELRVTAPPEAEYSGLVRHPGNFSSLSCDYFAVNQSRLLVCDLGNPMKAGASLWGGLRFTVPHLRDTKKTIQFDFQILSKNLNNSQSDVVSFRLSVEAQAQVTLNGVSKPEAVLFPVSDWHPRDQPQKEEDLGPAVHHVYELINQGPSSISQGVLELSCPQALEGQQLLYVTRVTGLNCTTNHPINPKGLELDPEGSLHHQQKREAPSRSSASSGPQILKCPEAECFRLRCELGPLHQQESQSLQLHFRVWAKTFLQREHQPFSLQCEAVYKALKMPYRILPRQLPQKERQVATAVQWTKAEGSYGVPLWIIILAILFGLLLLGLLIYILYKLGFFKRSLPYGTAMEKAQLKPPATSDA
Sequence of human α5β1 integrin (P05556 21-798, chain 2 of 2): as the sequence (P05556 21-798) above

B1: MOR04974 IgG1 (antibody, V domains shown)
VH: QVQLVESGGGLVQPGGSLRLSCAASGFTFSSYGMSWVRQAPGKGLEWVSGIRAKQSGYATDYAAPVKGRFTISRDNSKNTLYLQMNSLRAEDTAVYYCARGLGDYGHHHGLSGIFDYWGQGTLVTVSS
VL: DIQMTQSPSSLSASVGDRVTITCRASQGISSNLNWYQQKPGKAPKLLIYAASNLQSGPSRFSGSGSGTDFTLTISSLQPEDFATYYCQQYASPRQTFGQGTKVEIKR
notes: also called IgG1 MOR04974
In the case of B1, in assay [1], the “EC50, inhibition of HUVEC adhesion to fibronectin” value was 0.4 µg/ml and 2.7 nM. Further, in assay [2], the binding result is given as “no binding (tested: 10 µg/mL)”.
